Here are results for 3 molecules from patent US20240294608A1, “ELP FUSION PROTEINS FOR CONTROLLED AND SUSTAINED RELEASE” (ImmunoForge Co., LTD., priority 2016, published 2024).

Experiment [1] concerns normal mice (strain FVB/nj). In words: Linear growth of normal mice, daily injection for three weeks. The following applies: injected daily for three weeks, mice 3 weeks of age, vs saline; FIG. 3A-C. The format is in vivo. How it is done: Effect on growth was determined by measuring nose to tail length (A), nose to anus length (B), and tail length (C). The graphs show the mean change in growth versus baseline over the 3 week period.
The above constructs were injected daily in normal mice (strain FVB/nj) for three weeks. The mice were 3 weeks of age at the start of the experiment. The effect on linear growth of the mice was determined by measuring tail length, nose to anal length and nose to tail length after each week of dosing in comparison to a control group injected with normal saline. […] There was no significant effect on body weight.

For experiment [2], the target named is GLP-2 receptor. In words: cell-based or functional assay.
Experiment [3] has as its target T1, GLP-2 receptor (Homo sapiens, UniProt O95838).
T1 sequence (O95838 1-553): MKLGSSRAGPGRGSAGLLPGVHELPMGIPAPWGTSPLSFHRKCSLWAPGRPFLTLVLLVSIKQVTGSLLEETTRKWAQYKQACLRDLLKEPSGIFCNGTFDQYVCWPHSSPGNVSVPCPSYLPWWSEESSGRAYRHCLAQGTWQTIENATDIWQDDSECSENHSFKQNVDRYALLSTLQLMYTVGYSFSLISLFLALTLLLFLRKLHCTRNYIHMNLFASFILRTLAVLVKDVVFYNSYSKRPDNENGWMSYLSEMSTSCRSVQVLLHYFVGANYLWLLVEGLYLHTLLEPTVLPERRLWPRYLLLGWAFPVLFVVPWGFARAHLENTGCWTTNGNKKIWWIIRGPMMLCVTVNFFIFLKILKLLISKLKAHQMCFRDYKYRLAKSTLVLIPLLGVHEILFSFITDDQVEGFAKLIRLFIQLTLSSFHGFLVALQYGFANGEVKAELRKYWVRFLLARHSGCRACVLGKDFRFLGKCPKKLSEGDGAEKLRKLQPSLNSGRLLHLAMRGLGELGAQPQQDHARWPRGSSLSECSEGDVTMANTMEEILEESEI
The experiment is described as follows: Cell-based cAMP potency assay. The note with it: read-out: ECso.

Experiment [4] concerns Male Sprague Dawley rats. The experiment is described as follows: Small intestine weight and histology after eleven-day subcutaneous dosing in rats. The format is in vivo. How it is done: Dosing was as follows: Vehicle group dosed with saline daily; PE0503 Q1D dosed with PE0503 at 1.3 mg/kg once per day; PE0503 Q2D dosed with PE0503 at 5.1 mg/kg every other day; PE0503 Q4D dosed with PE0503 at 20.5 mg/kg once every four days; GLP-2(A2G) TID dosed […] with 0.1 mg/kg GLP2(A2G).
Male Sprague Dawley rats (200-220 g, n=12/group) were injected subcutaneously with PE0503 or GLP-2 (A2G) peptide over an eleven-day dosing period as shown in Table 5.
The animals were sacrificed on day 12 and a mid-line incision was made, the small intestines were removed, stretched to their maximum length and measured. The fecal material was then flushed from the lumen and the small intestine weight was recorded.

B1: PE9306: CNP37 on N-terminus of ELP1-120 with Cathepsin K site 1 (Arg-Lys-Pro-Arg/Gly); SEQ ID NOs: 125 & 126 (protein)
chain: QEHPNARKYKGANKKGLSKGCFGLKLDRIGSMSGLGCRKPRGVPGVGVPGVGVPGGGVPGAGVPGVGVPGVGVPGVGVPGGGVPGAGVPGGGVPGVGVPGVGVPGGGVPGAGVPGVGVPGVGVPGVGVPGGGVPGAGVPGGGVPGVGVPGVGVPGGGVPGAGVPGVGVPGVGVPGVGVPGGGVPGAGVPGGGVPGVGVPGVGVPGGGVPGAGVPGVGVPGVGVPGVGVPGGGVPGAGVPGGGVPGVGVPGVGVPGGGVPGAGVPGVGVPGVGVPGVGVPGGGVPGAGVPGGGVPGVGVPGVGVPGGGVPGAGVPGVGVPGVGVPGVGVPGGGVPGAGVPGGGVPGVGVPGVGVPGGGVPGAGVPGVGVPGVGVPGVGVPGGGVPGAGVPGGGVPGVGVPGVGVPGGGVPGAGVPGVGVPGVGVPGVGVPGGGVPGAGVPGGGVPGVGVPGVGVPGGGVPGAGVPGVGVPGVGVPGVGVPGGGVPGAGVPGGGVPGVGVPGVGVPGGGVPGAGVPGVGVPGVGVPGVGVPGGGVPGAGVPGGGVPGVGVPGVGVPGGGVPGAGVPGVGVPGVGVPGVGVPGGGVPGAGVPGGGVPGVGVPGVGVPGGGVPGAGVPGVGVPGVGVPGVGVPGGGVPGAGVPGGGVPGWP
modifications: CNP37 CatK ELP1-120 fusion PE9306
As to B1, in experiment [1], the “rate of linear growth (tail length, nose to anal length, nose to tail length)” value is on record as “faster rate of linear growth”.

B2: PE0503 (ligand, part only; not given: ELP carrier, part only)
chain, part: HGDGSFSDEMNTILDNLAARDFINWLIQTKITD
B2 gave an EC50, cell-based cAMP potency assay in experiment [2] of 1.75 nM.

B3: PE0503: GLP-2 sequence with A2G mutation on the N-terminus of the ELP1-120 sequence (protein)
chain: HGDGSFSDEMNTILDNLAARDFINWLIQTKITDVPGVGVPGVGVPGGGVPGAGVPGVGVPGVGVPGVGVPGGGVPGAGVPGGGVPGVGVPGVGVPGGGVPGAGVPGVGVPGVGVPGVGVPGGGVPGAGVPGGGVPGVGVPGVGVPGGGVPGAGVPGVGVPGVGVPGVGVPGGGVPGAGVPGGGVPGVGVPGVGVPGGGVPGAGVPGVGVPGVGVPGVGVPGGGVPGAGVPGGGVPGVGVPGVGVPGGGVPGAGVPGVGVPGVGVPGVGVPGGGVPGAGVPGGGVPGVGVPGVGVPGGGVPGAGVPGVGVPGVGVPGVGVPGGGVPGAGVPGGGVPGVGVPGVGVPGGGVPGAGVPGVGVPGVGVPGVGVPGGGVPGAGVPGGGVPGVGVPGVGVPGGGVPGAGVPGVGVPGVGVPGVGVPGGGVPGAGVPGGGVPGVGVPGVGVPGGGVPGAGVPGVGVPGVGVPGVGVPGGGVPGAGVPGGGVPGVGVPGVGVPGGGVPGAGVPGVGVPGVGVPGVGVPGGGVPGAGVPGGGVPGVGVPGVGVPGGGVPGAGVPGVGVPGVGVPGVGVPGGGVPGAGVPGGGVPGVGVPGVGVPGGGVPGAGVPGVGVPGVGVPGVGVPGGGVPGAGVPGGGVPGWP
modifications: pPE0503-GLP-2(A2G)-ELP1-120
For B3, the EC50 in experiment [3] was 1.75 nM. For the same molecule, the small intestine weight result in experiment [4] (compared to placebo, day 12, even when dosed every fourth day (Q4D), FIG. 4) is on record as “highly significant increase”. In addition, the “villus height (histological analysis of sections of the small intestine)” value in experiment [4] (compared to vehicle (saline)) was “clear increase”.
